Data on one substance can be found in patent US20210389324.

Usually Km stands for the concentration of substrate that gives half-maximal velocity.

The test system of data set [1] is CFP-TRIM14-YFP 25-residue substrate.
Data set [2] deals with CFP-V12-YFP.

Take “Recombinant VEEV nsP2-thioredoxin Protease containing residues 457-792”: in data set [1], the Km turned out to be 21 µM, the Vmax worked out at 0.056 U/mg and the “cleavage of CFP-YFP substrate” value is “VEEV nsP2 cysteine protease”. Moreover, in data set [2], the Km came to 12 µM, the Vmax is 0.059 U/mg and the “cleavage of CFP-YFP substrate” value is given as “VEEV nsP2 cysteine protease”.
